Measurements: patent US20070020269A1 (published 2007)

What was measured:
p21-D3 = biological target: T1, p21-D3 (UniProt P38936 60-164); test: co-immunoprecipitation (anti-myc IP, anti-flag blot), co-transfected 293T cells
T1 construct: not shown: myc-tag from pcDNA3 vector
Excerpt: (§1) In order to determine the interacting regions of RX50 and p21, the 293T cells were co-transfected with RX50 and p21, RX50 and p21-D1, RX50 and p21-D2, RX50 and p21-D3, RX50 and p21-C, RX50 and p21-N, respectively. The transfected cells were allowed to grow 24 hrs before lysis. The supernatant was collected by centrifugation. The […] were subjected to immunoprecipitation with anti-myc antibody and Protein G. The product of co-immunoprecipitation was electrophoresised on SDS-PAGE, transferred onto a nitro cellulose membrane, and then subjected to immunoblot with a enzyme-labeled anti-flag antibody. […] It was inferred that the region of p21 interacting with RX50 was located between amino acid residue 40 to 60 of p21.

p21-C = biological target: T2, p21-C (UniProt P38936 91-164); test: as above
T2 construct: not shown: myc-tag from pcDNA3 vector
T2 sequence (P38936 91-164): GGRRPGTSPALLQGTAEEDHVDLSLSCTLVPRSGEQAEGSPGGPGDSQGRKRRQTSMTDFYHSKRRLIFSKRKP
Excerpt: as §1

T1 sequence (P38936 60-164): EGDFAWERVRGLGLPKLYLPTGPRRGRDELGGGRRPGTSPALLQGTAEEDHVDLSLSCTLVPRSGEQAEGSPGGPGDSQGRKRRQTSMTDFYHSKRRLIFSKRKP

binding result (p21-D3): no binding | binding result (p21-C): no binding
B1: Flag-RX50 (enzyme)
chain: MHGYFGCNAAAEPGYSAFVGTPQICVTKFSTRNCQGMDSVIKPLDTIPEDKKVRVQRTQSTFDPFEKPANQVKRVHSENNACINFKTSSTGKESPKVRRHSSPSSPTSPKFGKADSYEKLEKLGEGSYAYVYKGKSKVNGKLVALKVIRLQEEEGTPFTAIREASIIKGLKHANIVLLHDIIHTKETLTLVFEYYHTDLCQYMDKHPGGLHPDNVKLFLFQLLRGLSYIHQRYILHRDLKPGNLLISDTGELKLADFGLAKAKSVPSHTTSNEVVYLWYRPPDVLLGSTEYSTCLDMWGVGCIFVEMIQGVAAFPGMKDIQDQLERIFLVLGTPNEDTWPGVHSLPHFKPERFTLYSSKNLRQAWNKLSYVNHAEDLASKLLQCSPKNRLSAQAALSHEYFSDLPPRLWELTDMSSIFTVPNVRLQPEAGESMRAFGKNNSYGKSLSNSKH
notes: Expressed in transfected 293T cells; also called RX50 protein; not shown: N-terminal flag-tag from modified pcDNA3.1
